Target: the molecule itself
Test: crystal structure; co-expressed and co-purified SUN1-KASH6 complex at 12 mg/ml; sitting drops, 20°C; crystals at pH 6.0 (1.7 Å) and pH 5.5 (2.0 Å and 2.3 Å)

B1: KASH domain of human JAW1/LRMP (amino-acids 515-555) (peptide, UniProt Q12912 515-555, looked up)
chain: TGQLFQKSVDAAPTQQEDSWTSLEHILWPFTRLRHNGPPPV
notes: JAW1/LRMP (lymphoid restricted membrane protein), human, KASH domain, amino-acids 515-555; also called KASH6; KASH6 peptide; not shown: His6, N-terminal, cleaved; MBP, N-terminal, cleaved
binding result: binds
